Data reported in patent publication US20250296960A1, “PEPTIDE COMPOSITIONS AND METHODS OF USE THEREOF” (priority 2022, published 2025).
Numbered stars: 1 amine (or outer) side, 2 acyl side, 3 side chain; on linkers, the order of the positions; unused ones are H or OH. Square brackets hold non-standard residues; d marks the D form. Side chains are listed from the residue outwards. Ends that are not written are not given here. Peptide text beside a SMILES is read from it. * marks the point of attachment. C18 = C18 fatty acid (C16-C22 fatty acids conjugated via γGlu/8-amino-3,6-dioxaoctanoic acid spacers); C20 = C20 fatty acid moiety (of 2OEG-γGlu-C20, K**); C20 diacid = O=C(O)CCCCCCCCCCCCCCCCCCC(=O)*; γGlu = O=C(O)[C@H](CCC(=O)[*:2])N[*:1]; αMeR = C[C@](N)(CCCNC(=N)N)C(=O)O; AEEA = NCCOCCOCC(=O)O; Aib = CC(C)(N)C(=O)O

Tests used:
[1] = In vivo efficacy in mAMLN (obese and NASH) mice, 4 weeks; conditions: after 4 weeks
[2] = rat, in vivo, iv, 100 nmol/kg
Experimental: This study was conducted to evaluate the PK profile of SEQ ID NOs. 77, 102, and 103 and compare the PK profile by the different lipidated structure of peptides in rat plasma by IV administration. SEQ ID NOs. The peptides were delivered at 0.02% PS80 in PBS and dosing volume was 2.5 mL/kg.
The animals were not fasted prior to dosing. 0.2-0.4 mL of whole blood was taken from vein at each time point (0.167, 0.5, 1, 2, 4, 6, 8, 24, and 48 hr after administration) and transferred into the heparin coated tube.
The resulting plasma of 0.1-0.2 mL obtained by centrifugation of the blood samples was transferred into the tube and stored at −70° C. until analysis. The concentrations of peptides in plasma were determined by LC-MS/MS analysis.

[3] = In vivo efficacy in CDA-HFD (NASH) mice, 4 weeks; conditions: Example 16; for body weight compared to vehicle-treated control, in words: 20 nmol/kg s.c. Q2D, 4 weeks; for liver enzymes and liver steatosis compared to vehicle-treated control, in words: end of treatment
Experimental: This study was conducted to evaluate the efficacy of SEQ ID NOs. […] SEQ ID NOs. The peptides were delivered at 0.02% PS80 in PBS and dosing volume was 10 mL/kg. Control group was administered by vehicle without peptide.
Body weight changes were monitored Q2D; serum chemistry (end); hepatic TG (end); and histological analysis (end). […]

[4] = molecular target: T1, human GLP-1 receptor (GLP-1R), expressed on CHO-K1 cells (human, UniProt P43220 24-463); experiment: cell-based or functional assay
[5] = molecular target: human glucagon receptor (GCGR), expressed on CHO-K1 cells (human, UniProt P47871 26-477); experiment: cell-based or functional assay
[6] = molecular target: T2, human glucose-dependent insulinotropic polypeptide receptor (GIPR), expressed on CHO-K1 cells (human, UniProt P48546 22-466); experiment: cell-based or functional assay
T2 sequence (looked up): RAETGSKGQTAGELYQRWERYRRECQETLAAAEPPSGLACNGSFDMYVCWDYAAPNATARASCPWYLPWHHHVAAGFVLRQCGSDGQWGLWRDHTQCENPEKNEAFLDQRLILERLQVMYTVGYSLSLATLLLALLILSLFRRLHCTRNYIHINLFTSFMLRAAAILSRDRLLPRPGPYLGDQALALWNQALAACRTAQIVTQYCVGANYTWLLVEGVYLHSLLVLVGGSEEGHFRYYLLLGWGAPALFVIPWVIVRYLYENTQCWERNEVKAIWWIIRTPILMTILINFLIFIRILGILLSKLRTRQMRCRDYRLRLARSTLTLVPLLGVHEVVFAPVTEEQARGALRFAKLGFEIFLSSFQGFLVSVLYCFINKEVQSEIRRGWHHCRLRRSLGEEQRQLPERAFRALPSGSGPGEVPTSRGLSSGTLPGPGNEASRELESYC

[7] = molecular target: T1, human GLP-1 receptor (GLP-1R), …; experiment: cell-based or functional assay; remark: listed apart in the source
[8] = molecular target: T2, human glucose-dependent insulinotropic …; experiment: cell-based or functional assay; remark: listed apart in the source

Chain of human glucagon receptor (GCGR), expressed on CHO-K1 cells (P47871 26-477): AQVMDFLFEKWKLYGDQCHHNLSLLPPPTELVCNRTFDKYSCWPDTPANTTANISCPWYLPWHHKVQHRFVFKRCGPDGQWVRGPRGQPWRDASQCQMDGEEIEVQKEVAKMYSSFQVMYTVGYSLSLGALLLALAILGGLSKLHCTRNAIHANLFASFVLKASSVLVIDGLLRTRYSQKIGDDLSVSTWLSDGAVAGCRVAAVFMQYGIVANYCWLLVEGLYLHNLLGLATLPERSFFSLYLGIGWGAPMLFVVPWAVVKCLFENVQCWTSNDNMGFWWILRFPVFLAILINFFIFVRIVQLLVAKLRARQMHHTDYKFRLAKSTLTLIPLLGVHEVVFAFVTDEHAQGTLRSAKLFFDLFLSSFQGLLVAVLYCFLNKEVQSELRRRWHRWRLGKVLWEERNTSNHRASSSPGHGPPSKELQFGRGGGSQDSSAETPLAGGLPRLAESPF

Row | Molecule | Ratio vs. GLP-1R [4] | Relative % to native ligand [4] [%] | Ratio vs. GLP-1R [5] | Relative % to native ligand [5] [%] | Ratio vs. GLP-1R [6] | Relative % to native ligand [6] [%] | other results
1 | 97 (Y[Aib]QGTFTSDYSK([AEEA-AEEA-γGlu-C18])YLDYMMQRDFVK(N‑Biotinoyl‑N'‑(6-maleimidohexanoyl)hydrazide)WLLEGGPSSGAPPPS-NH2) [compound 97] | – | – | – | – | – | – | NAS score, in words [1]: statistically decreased more than the level of tirzepatide; hepatic steatosis (histological score), in words [1]: significantly reduced; liver weight, visceral fat weight, liver enzymes, and liver steatosis compared to vehicle-treated control, in words [1]: significantly reduced
2 | CSCC[C@H](NC(=O)[C@H](Cc1ccc(O)cc1)NC(=O)[C@H](CC(=O)O)NC(=O)[C@H](CC(C)C)NC(=O)[C@H](CC(C)C)NC(=O)[C@H](CCCCNC(=O)COCCOCCNC(=O)COCCOCCNC(=O)CC[C@H](NC(=O)CCCCCCCCCCCCCCCCCCC(=O)O)C(=O)O)NC(=O)[C@H](CO)NC(=O)[C@H](Cc1ccc(O)cc1)NC(=O)[C@H](CC(=O)O)NC(=O)[C@H](CO)NC(=O)[C@@H](NC(=O)[C@H](Cc1ccccc1)NC(=O)[C@@H](NC(=O)CNC(=O)[C@H](CCC(N)=O)NC(=O)C(C)(C)NC(=O)[C@@H](N)Cc1ccc(O)cc1)[C@@H](C)O)[C@@H](C)O)C(=O)N[C@@H](CCSC)C(=O)N[C@@H](CCC(N)=O)C(=O)N[C@@H](CCCNC(=N)N)C(=O)N[C@@H](CC(=O)O)C(=O)N[C@@H](Cc1ccccc1)C(=O)N[C@H](C(=O)N[C@@H](CCC(N)=O)C(=O)N[C@@H](Cc1c[nH]c2ccccc12)C(=O)N[C@@H](CC(C)C)C(=O)N[C@@H](CC(C)C)C(=O)N[C@@H](CCC(=O)O)C(=O)NCC(=O)NCC(=O)N1CCC[C@H]1C(=O)N[C@@H](CO)C(=O)N[C@@H](CO)C(=O)NCC(=O)N[C@@H](C)C(=O)N1CCC[C@H]1C(=O)N1CCC[C@H]1C(=O)N1CCC[C@H]1C(=O)N[C@@H](CO)C(N)=O)C(C)C [compound 103] (H-Y[Aib]QGTFTSDYSK([AEEA-AEEA-γGlu-C20 diacid])LLDYMMQRDFVQWLLEGGPSSGAPPPS-NH2; N-terminus and C-terminus assumed) | – | – | – | – | – | – | AUCinf/dose [2]: 629.51 ± 76.87 kg·h/L; half-life [2]: 9.59 ± 1.32 h; efficacy in the NASH model, in words [3]: superior efficacy compared to SEQ ID NO. 77; hepatic steatosis score compared to CDA-HFD control, in words [3]: significantly reduced; scores of hepatocytes inflammation and NAS score, in words [3]: statistically reduced; body weight compared to vehicle-treated control, in words [3]: reduce body weight; liver enzymes and liver steatosis compared to vehicle-treated control, in words [3]: reduce liver enzymes and liver steatosis significantly
3 | CSCC[C@H](NC(=O)[C@H](Cc1ccc(O)cc1)NC(=O)[C@H](CC(=O)O)NC(=O)[C@H](CC(C)C)NC(=O)[C@H](CC(C)C)NC(=O)[C@H](CCCCNC(=O)COCCOCCNC(=O)CC[C@H](NC(=O)CCCCCCCCCCCCCCCCCCC(=O)O)C(=O)O)NC(=O)[C@H](CO)NC(=O)[C@H](Cc1ccc(O)cc1)NC(=O)[C@H](CC(=O)O)NC(=O)[C@H](CO)NC(=O)[C@@H](NC(=O)[C@H](Cc1ccccc1)NC(=O)[C@@H](NC(=O)CNC(=O)[C@H](CCC(N)=O)NC(=O)C(C)(C)NC(=O)[C@@H](N)Cc1ccc(O)cc1)[C@@H](C)O)[C@@H](C)O)C(=O)N[C@@H](CCSC)C(=O)N[C@@H](CCC(N)=O)C(=O)N[C@@H](CCCNC(=N)N)C(=O)N[C@@H](CC(=O)O)C(=O)N[C@@H](Cc1ccccc1)C(=O)N[C@H](C(=O)N[C@@H](CCC(N)=O)C(=O)N[C@@H](Cc1c[nH]c2ccccc12)C(=O)N[C@@H](CC(C)C)C(=O)N[C@@H](CC(C)C)C(=O)N[C@@H](CCC(=O)O)C(=O)NCC(=O)NCC(=O)N1CCC[C@H]1C(=O)N[C@@H](CO)C(=O)N[C@@H](CO)C(=O)NCC(=O)N[C@@H](C)C(=O)N1CCC[C@H]1C(=O)N1CCC[C@H]1C(=O)N1CCC[C@H]1C(=O)N[C@@H](CO)C(N)=O)C(C)C [compound 102] (H-Y[Aib]QGTFTSDYSK([AEEA-γGlu-C20 diacid])LLDYMMQRDFVQWLLEGGPSSGAPPPS-NH2; N-terminus and C-terminus assumed) | – | – | – | – | – | – | AUCinf/dose [2]: 672.93 ± 32.13 kg·h/L; half-life [2]: 9.77 ± 0.89 h; scores of hepatocytes inflammation and NAS score, in words [3]: statistically reduced; body weight compared to vehicle-treated control, in words [3]: reduce body weight; liver enzymes and liver steatosis compared to vehicle-treated control, in words [3]: reduce liver enzymes and liver steatosis significantly
4 | Y[Aib]QGTFTSDYSK([AEEA-AEEA-γGlu-C20])YLDYMMQ[αMeR]DFVQWLLEGGPSSGAPPPS-NH2 [SEQ ID NO. 107] | 100 | 37 | 37 | 14 | 537 | 200 | –
5 | Y[Aib]QGTFTSDYSK([AEEA-AEEA-γGlu-C20])LLDYMMQ[αMeR]DFVQWLLEGGPSSGAPPPS-NH2 [SEQ ID NO. 108] | 100 | 46 | 83 | 39 | 971 | 451 | –
6 | H[Aib]QGTFTSDYSKYLDYMMARDFVQWLIEGGPSSGAPPPSC [Peptide No. 5 (with C-terminal cysteine)] | – | – | – | – | – | – | EC50 (nM), cAMP assay [7]: 0.0605 nM; EC50 (nM), cAMP assay [8]: 13.2 nM
7 | Y[Aib]QGTFTSDYSK([AEEA-AEEA-γGlu-C20])YLDYMMQ[αMeR]DFVKWLLEGGPSSGAPPPS-NH2 (not fully specified (residue 24); printed as YAibQGT FTSDY SK**YLD YMMQαR DFVB*W LLEGG PSSGA PPPS) [SEQ ID NO. 110] | 100 | 39 | 29 | 11 | 272 | 105 | –
